For 3 substances, EC50 and IC50 results are on record in US20170145104A1.

Assay [1] concerns the target human GITR, membrane bound (on activated human T cells and on 3A9-hGITR cells) (human) (UniProt Q9Y5U5). The assay is described as follows: FACS on activated T cells, GMFI (PE); EC50 table under the plot; unit from the axis; fit of a flat control curve, see non_binding.
Assay [2] has the same target. In words: FACS competition on PHA-activated human T cells, GITR-L pre-bound, competitor 28F3-hIgG1 at 0.5 ug/ml; inhibition partial.
Assay [3] has the same target. The assay is described as follows: FACS, PHA-activated human CD4+ and CD8+ T cells, PE anti-HA tag.
For assay [4] the target is unchanged. In words: FACS: recombinant hGITR-L trimer titrated on PHA-activated human T cells, CD4 gate, PE anti-HA tag; direct binding curve; the sheet's table heads the row 'IC50', the text calls it EC50; unit from the axis.
The target is the same in assay [5]. In words: FACS: recombinant hGITR-L trimer titrated on PHA-activated human T cells, CD8 gate, PE anti-HA tag; direct binding curve; the sheet's table heads the row 'IC50', the text calls it EC50; unit from the axis.
For assay [6] the target is unchanged. The assay is described as follows: FACS competition on activated human CD4+ T cells: GITRL pre-bound and titrated, then 28F3.hIgG1 (m11) at a fixed 0.5 ug/mL, detected with anti-human IgG Fc-PE; partial block; unit from the axis.

Sequence of human GITR, membrane bound (on activated human T cells and on 3A9-hGITR cells) (human) (Q9Y5U5 26-241 limits assumed, form in doubt): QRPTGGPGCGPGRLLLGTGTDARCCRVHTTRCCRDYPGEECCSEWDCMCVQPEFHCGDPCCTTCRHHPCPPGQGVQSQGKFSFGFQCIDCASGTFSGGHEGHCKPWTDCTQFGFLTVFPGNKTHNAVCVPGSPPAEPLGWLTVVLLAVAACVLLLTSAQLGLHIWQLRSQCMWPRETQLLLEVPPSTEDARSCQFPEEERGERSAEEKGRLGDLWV

Regarding unrelated hIgG2 (antibody), the EC50 (as a rule, the concentration at which the effect is half-maximal) in assay [1] turned out to be 6.72 nM.
Take “recombinant human GITR ligand trimer (R&D Systems 6987-GL)”: the results for the IC50 in assay [2] and in assay [6] were 0.0024 µg/mL and 0.00244 µg/mL, respectively. The EC50 was 0.016 µg/mL in assay [3], 0.016 µg/mL in assay [4] and 0.0163 µg/mL in assay [5].
Turning to unrelated hIgG1 (antibody), the EC50 in assay [1] is 132 nM.
